Test results as given in article PMC13376213, “Systematic discovery of motif-based interactions of the auxiliary domains of USP family deubiquitinases” (Nature Communications, 2026).
Blank lines part the entries; values can stand above or below the binder they belong to. Ends that are not written are not given here.

How the values were obtained:
[1] = target: USP11 DUSP-UBL tandem domain (human) (UniProt P51784); test: fluorescence polarisation; displacement: serial dilution of the unlabelled peptide against the domain (at two-fold the KD of the FITC-labelled peptide) in complex with 10 nM FITC-labelled peptide; 50 mM phosphate buffer pH 7.4; room temperature; three technical replicates; sigmoidal dose-response fit
Sequence of USP11 DUSP-UBL tandem domain (human) (P51784 whole entry, the tested form may be a part): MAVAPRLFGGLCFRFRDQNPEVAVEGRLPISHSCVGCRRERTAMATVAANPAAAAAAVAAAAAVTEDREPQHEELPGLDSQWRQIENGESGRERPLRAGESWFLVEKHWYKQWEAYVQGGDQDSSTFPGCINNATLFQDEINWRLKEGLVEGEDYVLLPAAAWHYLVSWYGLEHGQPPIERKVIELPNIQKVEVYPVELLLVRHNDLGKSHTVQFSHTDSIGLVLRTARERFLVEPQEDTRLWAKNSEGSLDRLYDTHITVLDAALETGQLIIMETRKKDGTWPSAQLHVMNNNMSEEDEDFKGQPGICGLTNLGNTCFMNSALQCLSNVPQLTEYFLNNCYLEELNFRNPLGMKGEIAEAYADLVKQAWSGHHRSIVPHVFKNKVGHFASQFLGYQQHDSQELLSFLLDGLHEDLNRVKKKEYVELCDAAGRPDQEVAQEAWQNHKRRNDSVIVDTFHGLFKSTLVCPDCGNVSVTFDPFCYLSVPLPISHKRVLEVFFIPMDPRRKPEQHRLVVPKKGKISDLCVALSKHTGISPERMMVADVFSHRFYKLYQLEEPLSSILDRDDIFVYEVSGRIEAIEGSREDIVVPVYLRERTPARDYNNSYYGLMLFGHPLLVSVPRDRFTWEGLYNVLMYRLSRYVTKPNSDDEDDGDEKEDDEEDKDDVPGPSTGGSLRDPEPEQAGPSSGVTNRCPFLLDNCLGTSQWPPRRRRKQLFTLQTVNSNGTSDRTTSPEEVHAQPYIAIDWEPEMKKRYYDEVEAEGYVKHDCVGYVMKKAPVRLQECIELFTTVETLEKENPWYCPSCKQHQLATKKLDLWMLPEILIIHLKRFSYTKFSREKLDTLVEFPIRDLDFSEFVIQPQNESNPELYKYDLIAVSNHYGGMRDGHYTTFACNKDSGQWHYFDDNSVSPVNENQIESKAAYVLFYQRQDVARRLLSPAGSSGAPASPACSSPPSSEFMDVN

[2] = target: USP20 zf-UBP domain (human) (UniProt Q9Y2K6); test: as above
Sequence of USP20 zf-UBP domain (human) (Q9Y2K6 whole entry, the tested form may be a part): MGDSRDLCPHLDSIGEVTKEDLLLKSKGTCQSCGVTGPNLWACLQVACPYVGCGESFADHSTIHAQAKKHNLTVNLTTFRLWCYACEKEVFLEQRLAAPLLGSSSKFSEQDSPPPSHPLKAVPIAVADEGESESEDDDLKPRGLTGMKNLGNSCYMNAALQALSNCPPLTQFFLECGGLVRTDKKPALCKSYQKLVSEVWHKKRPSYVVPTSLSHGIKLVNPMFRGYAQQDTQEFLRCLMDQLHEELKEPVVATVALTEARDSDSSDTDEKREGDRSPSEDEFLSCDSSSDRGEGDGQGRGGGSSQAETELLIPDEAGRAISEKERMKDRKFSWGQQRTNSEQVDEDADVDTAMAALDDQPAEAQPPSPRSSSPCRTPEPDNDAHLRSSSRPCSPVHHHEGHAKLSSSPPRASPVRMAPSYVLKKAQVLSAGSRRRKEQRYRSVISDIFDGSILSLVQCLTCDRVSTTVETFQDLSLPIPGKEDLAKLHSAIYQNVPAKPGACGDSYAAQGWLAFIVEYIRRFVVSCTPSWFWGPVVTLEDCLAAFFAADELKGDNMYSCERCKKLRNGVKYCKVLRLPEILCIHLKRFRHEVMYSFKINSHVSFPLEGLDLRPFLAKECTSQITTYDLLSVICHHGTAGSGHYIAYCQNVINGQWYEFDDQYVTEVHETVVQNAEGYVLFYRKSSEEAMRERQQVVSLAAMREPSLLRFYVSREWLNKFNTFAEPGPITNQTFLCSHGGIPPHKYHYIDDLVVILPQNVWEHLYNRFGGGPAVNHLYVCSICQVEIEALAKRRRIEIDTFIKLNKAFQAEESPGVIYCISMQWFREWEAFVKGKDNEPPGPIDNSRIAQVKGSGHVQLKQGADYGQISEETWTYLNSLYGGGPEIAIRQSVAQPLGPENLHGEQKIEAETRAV

[3] = target: USP33 zf-UBP domain (human) (UniProt Q8TEY7); test: as above
Sequence of USP33 zf-UBP domain (human) (Q8TEY7 whole entry, the tested form may be a part): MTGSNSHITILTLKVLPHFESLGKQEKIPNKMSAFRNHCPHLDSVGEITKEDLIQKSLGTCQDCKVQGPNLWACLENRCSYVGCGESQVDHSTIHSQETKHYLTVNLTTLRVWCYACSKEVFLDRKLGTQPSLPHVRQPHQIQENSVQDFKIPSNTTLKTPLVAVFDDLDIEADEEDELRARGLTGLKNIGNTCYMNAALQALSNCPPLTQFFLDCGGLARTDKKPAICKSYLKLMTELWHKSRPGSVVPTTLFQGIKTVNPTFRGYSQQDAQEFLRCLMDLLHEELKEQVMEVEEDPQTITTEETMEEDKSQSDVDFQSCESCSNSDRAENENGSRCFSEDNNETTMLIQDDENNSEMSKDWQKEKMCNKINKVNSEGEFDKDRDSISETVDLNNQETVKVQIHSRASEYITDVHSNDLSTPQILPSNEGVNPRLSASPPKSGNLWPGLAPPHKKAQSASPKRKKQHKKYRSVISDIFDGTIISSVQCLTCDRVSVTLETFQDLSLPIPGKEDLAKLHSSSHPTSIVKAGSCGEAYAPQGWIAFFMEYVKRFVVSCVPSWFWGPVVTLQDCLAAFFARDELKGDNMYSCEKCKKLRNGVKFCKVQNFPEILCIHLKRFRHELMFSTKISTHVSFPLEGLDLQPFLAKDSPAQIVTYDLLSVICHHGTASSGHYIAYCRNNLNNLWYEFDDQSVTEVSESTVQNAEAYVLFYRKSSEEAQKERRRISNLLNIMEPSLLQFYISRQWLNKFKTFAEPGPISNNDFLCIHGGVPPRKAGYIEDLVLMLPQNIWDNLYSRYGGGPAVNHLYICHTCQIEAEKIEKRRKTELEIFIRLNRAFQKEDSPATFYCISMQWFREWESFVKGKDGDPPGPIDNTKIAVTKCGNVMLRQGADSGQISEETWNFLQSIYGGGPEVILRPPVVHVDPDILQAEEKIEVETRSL

[4] = target: USP22 zf-UBP domain, tag cleaved (for FP) (human) (UniProt Q9UPT9); test: fluorescence polarisation; saturation or displacement not stated for this experiment; 50 mM phosphate buffer pH 7.4, room temperature
Sequence of USP22 zf-UBP domain, tag cleaved (for FP) (human) (Q9UPT9 whole entry, the tested form may be a part): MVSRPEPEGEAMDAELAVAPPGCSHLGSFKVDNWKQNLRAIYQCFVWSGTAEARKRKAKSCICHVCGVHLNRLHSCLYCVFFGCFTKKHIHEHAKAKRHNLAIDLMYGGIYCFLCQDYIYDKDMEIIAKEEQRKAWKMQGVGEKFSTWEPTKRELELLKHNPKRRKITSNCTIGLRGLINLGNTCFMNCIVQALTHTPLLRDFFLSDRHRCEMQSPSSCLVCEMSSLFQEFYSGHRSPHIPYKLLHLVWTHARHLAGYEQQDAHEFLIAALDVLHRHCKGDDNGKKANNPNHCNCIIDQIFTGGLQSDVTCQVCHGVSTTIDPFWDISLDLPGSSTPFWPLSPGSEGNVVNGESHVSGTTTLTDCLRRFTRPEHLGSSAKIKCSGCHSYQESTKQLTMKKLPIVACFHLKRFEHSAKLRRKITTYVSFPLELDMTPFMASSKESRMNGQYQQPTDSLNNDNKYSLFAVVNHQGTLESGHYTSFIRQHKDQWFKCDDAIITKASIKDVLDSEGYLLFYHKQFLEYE

[5] = target: T1, CYLD CAP-Gly1 domain, GST-tagged, Q9NQC7; test: peptide SPOT array alanine scanning; settings: chain shown with the change;; parent: est. 0; read off a plot
T1 chain: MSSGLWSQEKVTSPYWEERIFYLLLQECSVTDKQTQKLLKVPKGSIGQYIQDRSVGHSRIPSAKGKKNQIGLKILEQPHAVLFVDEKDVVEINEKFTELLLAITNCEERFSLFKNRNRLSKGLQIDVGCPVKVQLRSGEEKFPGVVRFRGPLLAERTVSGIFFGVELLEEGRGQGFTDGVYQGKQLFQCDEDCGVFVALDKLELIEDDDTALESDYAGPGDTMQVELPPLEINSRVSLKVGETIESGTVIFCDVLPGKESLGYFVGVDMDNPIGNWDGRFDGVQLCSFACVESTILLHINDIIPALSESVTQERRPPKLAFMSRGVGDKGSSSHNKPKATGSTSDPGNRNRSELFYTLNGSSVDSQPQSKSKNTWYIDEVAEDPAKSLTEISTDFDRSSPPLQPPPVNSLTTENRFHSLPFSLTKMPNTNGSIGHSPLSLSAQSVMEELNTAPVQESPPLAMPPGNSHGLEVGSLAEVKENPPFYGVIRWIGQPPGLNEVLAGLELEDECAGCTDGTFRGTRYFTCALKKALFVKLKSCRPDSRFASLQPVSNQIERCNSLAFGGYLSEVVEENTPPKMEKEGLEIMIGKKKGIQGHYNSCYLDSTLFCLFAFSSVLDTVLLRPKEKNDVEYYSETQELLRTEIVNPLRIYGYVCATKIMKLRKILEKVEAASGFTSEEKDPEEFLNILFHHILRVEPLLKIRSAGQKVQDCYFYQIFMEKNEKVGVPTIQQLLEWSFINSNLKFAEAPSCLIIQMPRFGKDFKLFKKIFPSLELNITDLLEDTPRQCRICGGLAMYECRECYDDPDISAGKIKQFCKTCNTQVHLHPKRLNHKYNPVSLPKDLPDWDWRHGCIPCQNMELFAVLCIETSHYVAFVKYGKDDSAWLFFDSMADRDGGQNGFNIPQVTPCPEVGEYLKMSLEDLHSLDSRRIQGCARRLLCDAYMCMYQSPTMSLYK

[6] = target: USP33 DUSP2 domain (human) (UniProt Q8TEY7); test: fluorescence polarisation; displacement: serial dilution of the unlabelled peptide against the domain (at two-fold the KD of the FITC-labelled peptide) in complex with 10 nM FITC-labelled peptide; 50 mM phosphate buffer pH 7.4; room temperature; three technical replicates; sigmoidal dose-response fit
Sequence of USP33 DUSP2 domain (human) (Q8TEY7 whole entry, the tested form may be a part): as the sequence (Q8TEY7 whole entry, the tested form may be a part) above

[7] = target: USP20 DUSP2 domain (human) (UniProt Q9Y2K6); test: as above
Sequence of USP20 DUSP2 domain (human) (Q9Y2K6 whole entry, the tested form may be a part): as the sequence (Q9Y2K6 whole entry, the tested form may be a part) above

[8] = target: USP20 zf-UBP domain, tag cleaved (for FP) (human); test: fluorescence polarisation; displacement: unlabeled peptide titrated into the domain (at two-fold the KD of the FITC-labeled peptide) with 10 nM FITC-labeled peptide; 50 mM phosphate buffer pH 7.4, DTT, room temperature; estimated KD
Sequence of USP20 zf-UBP domain, tag cleaved (for FP) (human) (Q9Y2K6 whole entry, the tested form may be a part): as above

[9] = target: USP33 zf-UBP domain, tag cleaved (for FP) (human) (UniProt Q8TEY7); test: as above
Sequence of USP33 zf-UBP domain, tag cleaved (for FP) (human) (Q8TEY7 whole entry, the tested form may be a part): as the sequence (Q8TEY7 whole entry, the tested form may be a part) above

Kd [1]: 207 µM
Binder: Ac-SAVTYPDWIGQSYSEV-NH2 [ORAI1 48-63 peptide, unlabelled]

Kd [2]: 37.1 µM
Kd [3]: 14.1 µM
Binder: Ac-YLQPSSKASLESTSDL-NH2 [CEP192 2073-2087 peptide]

Kd [4]: 0.1 µM
Binder: VPSPEAFLGKPWSSWIDAAKLH-NH2 (also: N-terminus FITC-labeled or acetylated) [ATXN7L1_(36-57) peptide]

Kd [2]: 505 µM
Kd [3]: 260 µM
Binder: Ac-YEKVKRRLDLDID-NH2 [CCP110 582-593 peptide]

other: signal change (%) [5]: -30%
Binder: PDAALQRMEQEAERRR [RBM25_(558-573) peptide, P49756 E561A]

Kd [6]: 9.89 µM
Kd [7]: 18.8 µM
Binder: Ac-PYIPMDKDFQLRSFDQLS-NH2 [HIF1A 564-581 D570K peptide]

Kd [8]: 82 µM
Kd [9]: 14 µM
Binder: Ac-AQSKTQLEVRPV-NH2 [ROBO1_(1495-1506) peptide]

other: signal change (%) [5]: -95%
Binder: PDAELQRMEQEAERAR [RBM25_(558-573) peptide, P49756 R572A]

Kd [6]: 1180 µM
Kd [7]: 235 µM
Binder: Ac-PYIPMDGEDFQLSPICPE-NH2 [HIF2A 531-548 peptide]

Kd [4]: 19 µM
Binder: VPSLDDFAGQSWSSWVE-NH2 (also: N-terminus FITC-labeled or acetylated) [ATXN7L2_(18-34) peptide]

Kd [6]: 0.75 µM
Kd [7]: 44.7 µM
Binder: Ac-DVVDDFQLQHRHGPGY-NH2 [MFSD2B 395-409 peptide]

Kd [2]: 9.02 µM
Kd [3]: 7.86 µM
Binder: Ac-YTNSSGKMALNSPQPG-NH2 [IRAG1 302-316 peptide]

Kd [4]: 11 µM
Binder: VPSPEAFLGKPWSSWID-NH2 (also: N-terminus FITC-labeled or acetylated) [ATXN7L1_(36-52) peptide]

Kd [2]: 162 µM
Kd [3]: 40.6 µM
Binder: Ac-YPFQPGRMALESQSPG-NH2 [USP19 874-888 peptide]

Kd [4]: 3 µM
Binder: VPSLDDFAGQSWSSWVERADLP-NH2 (also: N-terminus FITC-labeled or acetylated) [ATXN7L2_(18-39) peptide]

Kd [6]: 227 µM
Binder: Ac-PYIPMDDDFQARSFDQLS-NH2 [HIF1A 564-581 L574A peptide]

Kd [6]: 228 µM
Kd [7]: 10.2 µM
Binder: Ac-SDDDLAWNIAPQGLQ-NH2 [GPR137B 348-362 peptide, unlabelled]

Kd [6]: 40.1 µM
Kd [7]: 22.4 µM
Binder: Ac-QLEEELFQLRQGPAGY-NH2 [CCDC88B 947-961 peptide]
